From paper PMC2861610 (Molecular Biology of the Cell, 2010)
Each block holds one molecule with its values, some of them ahead of it.

Assays:
[1] = target: Abp1 (endogenous) (Dictyostelium (endogenous in Dictyostelium cells)); assay: native gel or EMSA
[2] = target: T1, GST fusion with the GPR loop of MyoK (Dictyostelium, UniProt Q9XXV8 114-272); assay: SPR
T1 sequence (looked up): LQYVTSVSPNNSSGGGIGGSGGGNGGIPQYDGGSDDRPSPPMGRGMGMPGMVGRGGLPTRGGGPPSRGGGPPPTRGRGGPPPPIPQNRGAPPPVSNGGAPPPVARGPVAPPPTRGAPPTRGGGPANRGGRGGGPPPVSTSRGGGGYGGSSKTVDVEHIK

His-tagged dynamin A = target: T2, His-tagged dynamin A (Dictyostelium, UniProt Q94464 1-853); assay: far-Western, overlay or dot blot
T2 sequence (looked up): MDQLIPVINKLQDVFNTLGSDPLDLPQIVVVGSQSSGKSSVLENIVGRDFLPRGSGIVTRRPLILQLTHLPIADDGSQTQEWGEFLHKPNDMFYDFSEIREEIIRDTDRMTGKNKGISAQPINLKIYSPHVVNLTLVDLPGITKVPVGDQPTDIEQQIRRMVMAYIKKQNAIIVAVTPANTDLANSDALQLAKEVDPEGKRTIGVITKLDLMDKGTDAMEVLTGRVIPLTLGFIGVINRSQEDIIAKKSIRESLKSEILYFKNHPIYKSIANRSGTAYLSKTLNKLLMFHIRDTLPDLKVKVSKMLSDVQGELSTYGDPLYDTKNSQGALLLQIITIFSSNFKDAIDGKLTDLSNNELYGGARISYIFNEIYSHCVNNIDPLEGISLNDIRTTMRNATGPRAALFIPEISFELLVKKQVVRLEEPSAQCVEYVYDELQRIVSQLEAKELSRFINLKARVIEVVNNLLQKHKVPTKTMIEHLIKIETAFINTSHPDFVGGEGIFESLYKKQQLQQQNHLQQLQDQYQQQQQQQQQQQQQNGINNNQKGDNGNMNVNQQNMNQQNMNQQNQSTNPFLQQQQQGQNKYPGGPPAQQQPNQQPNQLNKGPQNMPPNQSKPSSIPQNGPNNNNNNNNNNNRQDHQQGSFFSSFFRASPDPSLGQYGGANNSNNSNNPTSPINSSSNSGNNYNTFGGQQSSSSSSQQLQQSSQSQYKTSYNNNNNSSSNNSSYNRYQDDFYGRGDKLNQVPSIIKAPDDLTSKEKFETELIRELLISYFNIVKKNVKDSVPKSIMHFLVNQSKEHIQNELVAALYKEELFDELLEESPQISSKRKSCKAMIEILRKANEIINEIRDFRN

GST-Abp1 (Dictyostelium) = assay: SPR

stoichiometry N [1]: 2
Molecule: Abp1 (endogenous) (natural protein)

Kd [2]: ~0.5 µM
binding result (His-tagged dynamin A): binds
B2: Profilin I (natural protein, Dictyostelium, UniProt P26199 1-126, looked up)
chain: MSWQQYVDEQLTGAGLSQGAILGANDGGVWAKSSGINITKPEGDGIAALFKNPAEVFAKGALIGGVKYMGIKGDPQSIYGKKGATGCVLVRTGQAIIVGIYDDKVQPGSAALIVEKLGDYLRDNGY

Kd (GST-Abp1 (Dictyostelium)): 0.0026 µM
B4: His-tagged dynamin A (natural protein)
chain: T2 sequence (looked up)

The remaining lines, values behind:

B1: Profilin II (natural protein, Dictyostelium, UniProt P26200 1-124, looked up)
chain: MTWQAYVDNNLLGAGFASAALLGAADGSVWAHSAGFNVAEGKAITALFQKDGAAFATGIHVAGKKYMAIKSDTRSAYGKLGAGGVVCVKTLTCIIVAVYDDKLQPGAAANIAEKLADYLIDNNC
Kd [2]: 0.108 µM
binding result (His-tagged dynamin A): binds
Kd (GST-Abp1 (Dictyostelium)): 0.011 µM

B3: GST fusion with the GPR loop of MyoK (domain or fragment)
chain: T1 sequence (looked up)
Kd (GST-Abp1 (Dictyostelium)): 0.027 µM
